Assay results as given in publication PMC5656003.

Tested on: O=[N+]([O-])c1ccc(O[C@@H]2O[C@H](CO)[C@@H](O)[C@H](O)[C@H]2O)cc1
Test: pNP release, initial-rate kinetics
Format: biochemical, Bacteroides ovatus

Substance | Km [µM] | kcat [s⁻¹] | kcat/Km [M⁻¹ s⁻¹]
BACOVA_02738 (GH3) (Bacteroides ovatus) | 2530 ± 130 | 0.212 ± 0.004 | 83.8
BoGH3MLG (Bacteroides ovatus) | 2950 ± 140 | 59.5 ± 1.46 | 20200
